Here are results for 13 molecules from US20200255503A1.

B1: H1M1230N (antibody, V domains shown)
VH: EVQLVESGGGLVQPGGSLRLSCTASGFIFSNFWMTWVRQAPGKGLEWVANIKQDGSETYCVDSVKGRFTISRDHAKNSLFLQMNSLRAEDTAVYYCARGAGTIYYYGMDVWGQGTTVIVSS
VL: DIQMTQSPSSVSASVGDRLTITCRASQDISSWLTWYQQKPGKAPNLLIYAASGLQSGVPSRFSGSGSGTDFTLTISNLQPEDFATYYCQQANSFPLTFGQGTRLEIK
B2: H4H2597B (antibody, human IgG4, V domains shown)
VH: EVQLVESGGGLVQPGGSLRLSCAVSGFTFSNYAMNWVRQAPGKGLEWVSVISDSGRSTYYADSVKGRFTISRDNSKNTLYLQMNSLRAEDTAVYFCAKRYNWNLHYFDYWGQGTTVTVSS
VL: EIVLTQSPDFQSVTPKEKVTITCRASQSIGGSLHWYQQKPDQSPKLLIKYASQSFSGVPSRFSGSGSGTDFTLTINSLEAEDAATYYCLQSSSLRTFGQGTKVEIKR
B3: H4H2606B (antibody, human IgG4, V domains shown)
VH: EVQLVESGGGLVKPGGSLRLSCAASGFTFSDYYMNWIRQAPGKGLEWVSYISSSGNSIYYADSVKGRFTISRDNAKNSLFLQMSSLRAEDTAVYYCARDGRYNDRRRGYYWGQGTLVTVSS
VL: B2 VL with L4M, G31S
B4: H4H2797P (antibody, human IgG4, V domains shown)
VH: QVQLVESGGGVVLPGRSLRLSCAASGFTFSSYLMYWVRQAPGKGLEWVAVIWYDGSNKFYGDSVKGRFTISRDNSKNTLYLQMNSLRAEDTAVYYCARDNGNSGYEDSWNAFDIWGQGTMVTVSS
VL: DIQMTQSPSSLSASVGDRVTITCRASQDIYNYLAWFQQKPGKAPKSLIYAASSLQTGVPSQFSGSGSGTDFTLTISSLQPEDFATYYCQQYNNYPFTFGPGTKVDIK
B5: H2M1236N (antibody, mouse IgG2, V domains shown)
VH: QVQLQESGPGLVKPSETLSLTCTVSGGSISNYYWSWIRQPPGKGLEWIGYIYYSGRTNYNPSLKSRVTISVDTSKNQFSLKLRSVTAADTAVYYCARHRITRTADSFDYWGQGTLVTVSS
VL: DIQMTQSPSSLSASVGDRVTITCQASQDITNYLNWYQQKPGKAPKLLIYDASNLETGVPSRFSGSGSGTDFTFTISSLQPEDVATFYCHQYGDLPYTFGQGTKLEIK
B6: H2M1233N (antibody, mouse IgG2, V domains shown)
VH: QVVLVESGGGVVQPGRSLRLSCAASGFTFSSYGMHWVRQAPGKGLEWVAVIWYDGSNKYYVDSVKGRFTISRDNSNNTIYLQMNSLRAEDTAVYYCARSLIPVAGTDPIFGYWGQGTLVTVSS
VL: DIQMTQSPSTLSASVGDRVTITCRASQSVSSWLAWYQQKPGKAPKLLIFKASGLESGVPFRFSGSGSGTEFTLTISSLQPDDFATYYCQQYNTYSPTFGQGTKVEIK
B7: H2M1237N (antibody, mouse IgG2, V domains shown)
VH: B6 VH with N57I, V61A, S99A
VL: B6 VL with A51T
B8: H2M1242N (antibody, mouse IgG2, V domains shown)
VH: EVQLVESGGGLVRPGGSLRLSCAASGFTFTSYAMNWVRQAPGKGLEWVSSISSYSSYIYIADSVKGRFTLSRDNAKNSLYLQMHSLRPEDTAVYFCAREGYSAYSYFDFWGRGTLVTVSS
VL: B6 VL with S30I, F49H, K50R, G53S, F60S, S77G, S95F, I106V
B9: H1M1241N (antibody, V domains shown)
VH: EVQLVESGGGLVKPGGSLRLSCAASGFTFSSYSMNWVRQAPGKGLEWVSSISSRSSYIYYADSVKGRFTISRDNAKNSLYLQMNSLRAEDTAVYYCARDHIVVVPGASYYYYGMDVWGQGTTVTVSS
VL: DIQMTQSPSSLSASVGDRVTITCRASQGIRNDLGWYQQKPGKAPKRLISAASSLQSGVPSRFSGSGSGTEFTLTISSLQPEDFATYYCLQHNSYPLTFGGGTKVEIK
B10: H4H2590S (antibody, human IgG4, V domains shown)
VH: QVQLVESGGGLVKPGGSLRLSCAASGFTFSDYYMNWIRQAPGKGLEWISYISSGGSTTYYADSVKGRFTISRDNAKNSLYLQMNSLRAEDTAVYYCARDGKYNTSPGDYWGQGTLVTVSS
VL: EIVLTQSPDFQSVTPKEKVTITCRASQSIGSSLHWYQQKPDQSPKLLIKYASQSFSGVPSRFSGSGSGTDFTLTINSLEAEDAATYYCLQSSSLRTFGQGTKVDIK
B11: H4H2592B (antibody, human IgG4, V domains shown)
VH: B10 VH with G54S, Y80F, A88G, K101R, S105V, P106A, L115T
VL: B2 VL with L4M, T14A, S28N, S92Y, S93T
B12: H4H2608B (antibody, human IgG4, V domains shown)
VH: B10 VH with Q1E, G54S, G55D, S56D, S105V, P106A, Y109H
VL: B2 VL with L4M, T14A, S28N, G31S, S92Y, S93T
B13: H4H2607B (antibody, human IgG4, V domains shown)
VH: B10 VH with Q1E, I51L, G54S, T57A, S105V, P106A, L115T
VL: DIQLTQSPSSLSASVGDRVTITCRASQGIRNDLGWYQQKPGKAPKRLIYAASSLQSGVPSRFSGSGSGTEFTLTISSLQPEDFATYYCLQHNSYPYTFGQGTKVEIKR

Where a chain is given by its changes, count along the chain named.

The target in this experiment is natural Fel d1 (cat (Felis domesticus)) (UniProt P30438). The experiment can be described thus: SPR, mAb captured, nFel d1 injected, 25 C.
In general, Kd refers to the constant that tells how readily two partners part at equilibrium. Read a low Kd as tighter binding. Usually koff stands for a measure of how fast the partners let go of each other. A higher koff goes with a short-lived complex. In general, kon refers to a measure of how fast the partners come together. B1 came in with a Kd of 3.37 nM, a dissociation rate constant (koff) of 0.000869 s⁻¹, a kon of 258000 M⁻¹ s⁻¹ and a t1/2 of 13 min.

In turn, B2 returned a Kd of 0.65 nM, a koff of 0.0015 s⁻¹, a kon of 2.31e+06 M⁻¹ s⁻¹ and a t1/2 of 8 min.

The molecule B3 showed a dissociation constant Kd of 0.765 nM, an off-rate constant (koff) of 0.000707 s⁻¹, a kon of 924000 M⁻¹ s⁻¹ and a t1/2 of 16 min.

B4 returned a Kd of 35.4 nM, an off-rate (koff) of 0.00713 s⁻¹, an on-rate constant (kon) of 202000 M⁻¹ s⁻¹ and a t1/2 of 2 min.

B5 displayed a Kd of 4.55 nM, a koff of 0.00142 s⁻¹, a kon of 312000 M⁻¹ s⁻¹ and a t1/2 of 8 min.

The molecule B6 came in with a dissociation constant (Kd) of 1.4 nM, an off-rate (koff) of 0.000353 s⁻¹, a kon of 253000 M⁻¹ s⁻¹ and a t1/2 of 33 min.

In turn, B7 registered a dissociation constant Kd of 0.982 nM, a koff of 0.000276 s⁻¹, a kon of 281000 M⁻¹ s⁻¹ and a t1/2 of 42 min.

Turning to B8, the equilibrium dissociation constant (Kd) was determined as 3.14 nM, the koff stood at 0.000604 s⁻¹, the kon turned out to be 192000 M⁻¹ s⁻¹ and the t1/2 was 19 min.

Molecule B9 yielded a dissociation constant (Kd) of 3.63 nM, a koff of 0.000662 s⁻¹, an association rate constant (kon) of 182000 M⁻¹ s⁻¹ and a t1/2 of 17 min.

As for B10, the dissociation constant Kd is 0.655 nM, the dissociation rate constant (koff) was 0.000802 s⁻¹, the on-rate (kon) came to 1.23e+06 M⁻¹ s⁻¹ and the t1/2 is 14 min.

As to B11, the equilibrium dissociation constant (Kd) came to 0.641 nM, the off-rate (koff) stood at 0.000728 s⁻¹, the kon amounted to 1.14e+06 M⁻¹ s⁻¹ and the t1/2 came out at 16 min.

Molecule B12 yielded an equilibrium dissociation constant (Kd) of 2.05 nM, an off-rate constant (koff) of 0.00106 s⁻¹, a kon of 516000 M⁻¹ s⁻¹ and a t1/2 of 11 min.

As to B13, the dissociation constant Kd came out at 0.307 nM, the off-rate constant (koff) was found to be 0.00091 s⁻¹, the on-rate (kon) was 2.97e+06 M⁻¹ s⁻¹ and the t1/2 amounted to 13 min.
